# Data: IntAct's records for PubMed 26551074
# B1: Telomerase-associated protein of 19 kDa (Tetrahymena thermophila (strain SB210)), D2CVN7 (parent)
# chain: MQQPKRNFDLYKLITDKQIDFQVADLIQDEQSSFVSVRIYGQFKCFVPKSTIQEQLDKIKNLSSKELAKNKIFKFLSEYNKNNQKQDELSHDYYGYFKVQQHQFILNLENAQREASLAVDDFYFINGRIYKTNHDILILQAHHVYQMQKPTLQLLQAASEINQN
# partner: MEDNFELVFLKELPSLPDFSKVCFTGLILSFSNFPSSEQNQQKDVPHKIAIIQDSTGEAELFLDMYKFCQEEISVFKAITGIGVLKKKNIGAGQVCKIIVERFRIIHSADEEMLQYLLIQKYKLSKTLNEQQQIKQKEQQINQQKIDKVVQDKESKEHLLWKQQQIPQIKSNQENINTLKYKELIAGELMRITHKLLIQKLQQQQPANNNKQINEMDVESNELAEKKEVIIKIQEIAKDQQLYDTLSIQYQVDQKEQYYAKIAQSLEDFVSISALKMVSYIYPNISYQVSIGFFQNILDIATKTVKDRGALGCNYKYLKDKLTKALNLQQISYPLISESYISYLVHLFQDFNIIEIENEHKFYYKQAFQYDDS
# B2: Telomerase-associated protein of 45 kDa (Tetrahymena thermophila (strain SB210)), Q6JXI5 (parent)
# chain: B1 partner
# partner: B1 chain
# Variants of: B1
# Conditions: with tap45_tetts TAP45, Q6JXI5
row,effect of a mutation on the interaction,Variant
1,disrupting interaction strength,MQQPKRNFDLYKLITDKQIDFQVADLIQDEQSSFVSVRIYGQFKCFVPKSTIQEQLDKIKNLSSKELAKNKIFKFLSEYNKNNQKQDELSHDYYGYFKVQQHQFILNLENAQREASLAVDDFYFINGRIYKTNHDILILQAHHVYQWQKPTLQLLQAASEINQN [M147W]
2,disrupting interaction strength,MQQPKRNFDLYKLITDKQIDFQVADLIQDEQSSFVSVRIYGQFKCFVPKSTIQEQLDKIKNLSSKELAKNKIFKFLSEYNKNNQKQDELSHDYYGYFKVQQHQFILNLENAQREASLAVDDFYFINGRIYKTNHDILILQAHHVAQMQKPTLQLLQAASEINQN [Y145A]
3,disrupting interaction strength,MQQPKRNFDLYKLITDKQIDFQVADLIQDEQSSFVSVRIYGQFKCFVPKSTIQEQLDKIKNLSSKELAKNKIFKFLSEYNKNNQKQDELSHDYYGYFKVQQHQFILNLENAQREASLAVDDFYFINGRIYKTNHDILILQAHHVYQMQKPTLQLLQAASERNQN [I161R]
4,disrupting interaction strength,MQQPKRNFDLYKLITDKQIDFQVADLIQDEQSSFVSVEIYGQFKCFVPKSTIQEQLDKIKNLSSKELAKNKIFKFLSEYNKNNQKQDELSHDYYGYFKVQQHQFILNLENAQREASLAVDDFYFINGRIYKTNHDILILQAHHVYQMQKPTLQLLQAASEINQN [R38E]

# Variants of: B2
# Conditions: with tap19_tetts TAP19, D2CVN7
row,effect of a mutation on the interaction,Variant
1,disrupting interaction strength,MEDNFELVFLKELPSLPDFSKVCFTGLILSFSNFPSSEQNQQKDVPHKIAIIQDSTGEAELFLDMYKFCQEEISVFKAITGIGVLKKKNIGAGQVCKIIVERFRIIHSADERMLQYLLIQKYKLSKTLNEQQQIKQKEQQINQQKIDKVVQDKESKEHLLWKQQQIPQIKSNQENINTLKYKELIAGELMRITHKLLIQKLQQQQPANNNKQINEMDVESNELAEKKEVIIKIQEIAKDQQLYDTLSIQYQVDQKEQYYAKIAQSLEDFVSISALKMVSYIYPNISYQVSIGFFQNILDIATKTVKDRGALGCNYKYLKDKLTKALNLQQISYPLISESYISYLVHLFQDFNIIEIENEHKFYYKQAFQYDDS [E112R]
2,disrupting interaction strength,MEDNFELVFLKELPSLPDFSKVCFTGLILSFSNFPSSEQNQQKDVPHKIAIIQDSTGEAELFLDMYKFCQEEISVFKAITGIGVLKKKNIGAGQVCKIIVERFRIIHSADEEWLQYLLIQKYKLSKTLNEQQQIKQKEQQINQQKIDKVVQDKESKEHLLWKQQQIPQIKSNQENINTLKYKELIAGELMRITHKLLIQKLQQQQPANNNKQINEMDVESNELAEKKEVIIKIQEIAKDQQLYDTLSIQYQVDQKEQYYAKIAQSLEDFVSISALKMVSYIYPNISYQVSIGFFQNILDIATKTVKDRGALGCNYKYLKDKLTKALNLQQISYPLISESYISYLVHLFQDFNIIEIENEHKFYYKQAFQYDDS [M113W]
3,disrupting interaction strength,MEDNFELVFLKELPSLPDFSKVCFTGLILSFSNFPSSEQNQQKDVPHKIAIIQDSTGEAELFLDMYKFCQEEISVFKAITGIGVLKKKNIGAGQVCKIIVERFRIIHSRDEEMLQYLLIQKYKLSKTLNEQQQIKQKEQQINQQKIDKVVQDKESKEHLLWKQQQIPQIKSNQENINTLKYKELIAGELMRITHKLLIQKLQQQQPANNNKQINEMDVESNELAEKKEVIIKIQEIAKDQQLYDTLSIQYQVDQKEQYYAKIAQSLEDFVSISALKMVSYIYPNISYQVSIGFFQNILDIATKTVKDRGALGCNYKYLKDKLTKALNLQQISYPLISESYISYLVHLFQDFNIIEIENEHKFYYKQAFQYDDS [A109R]
4,disrupting interaction strength,MEDNFELVFLKELPSLPDFSKVCFTGLILSFSNFPSSEQNQQKDVPHKIAIIQDSTGEAELFLDMYKFCQEEISVFKAITGIGVLKKKNIGAGQVCKIIVERFRIIHSWDEEMLQYLLIQKYKLSKTLNEQQQIKQKEQQINQQKIDKVVQDKESKEHLLWKQQQIPQIKSNQENINTLKYKELIAGELMRITHKLLIQKLQQQQPANNNKQINEMDVESNELAEKKEVIIKIQEIAKDQQLYDTLSIQYQVDQKEQYYAKIAQSLEDFVSISALKMVSYIYPNISYQVSIGFFQNILDIATKTVKDRGALGCNYKYLKDKLTKALNLQQISYPLISESYISYLVHLFQDFNIIEIENEHKFYYKQAFQYDDS [A109W]
